{
  "source": "patent US12312397B2",
  "about": "“Anti-O2 antibodies and uses thereof” (priority 2016, dated 2025)",
  "molecules": {"B1": {"name": "KPN179: Class III anti-O2 antigen human mAb; VH SEQ ID NO: 53, VL SEQ ID NO: 54 (antibody, V domains shown)", "VH": "EVQVVESGGGLVKPGGSLRLSCAASGFTFNNAWMNWVRQAPGKGLEWVGRIKRKADGETTDYPASVKGRFTVSRDDSKNTIYLQMNSLKTEDTAIYYCTTRIVTTNDYWGQGTLVTVSS", "VL": "QSALTQPPSVSGSPGQSVTISCTGTSSDVGYYDYVSWYQQHHPGKAPKHMIYDVNKRPSGVPDRFSGSKSGNTASLTISGLQAEDEADYYCCSYAGGDTFVFGTGTKVTVL", "modifications": "Description of Artificial Sequence: SyntheticKPN179 VH polypeptide; Description of Artificial Sequence: SyntheticKPN179 VL polypeptide"}},
  "biological_target": "O2 LPS",
  "test": "Octet binding assay, O2 LPS",
  "parameters": "species or system Klebsiella pneumoniae",
  "conditions": "average; calculated from on-rate and off-rate of Octet sensorgram; read-out: affinity constant (KD) to O2 LPS",
  "experimental": "The interaction of anti-O2 LPS mAbs with O1 and O2 LPS was further tested in solution phase by Octet platform. This platform provides a powerful tool to measure the rate of biomolecular complex formation and complex stability in a more biologically meaningful setting. Briefly, Protein A coated sensors were coated with 0.2 μg/mL anti-O2 LPS mAbs for 10 minutes before being dipped into solution containing 2 μg/mL O1 or O2 LPS in Kinetics buffer (ForteBio, dilute 10× to 1× with PBS). Changes in the number of molecules bound to the biosensor caused a shift in the interference pattern that was recorded in real time. […] The affinity constant (KD) of Class III mAbs to O2 LPS was calculated based on the on-rate and off-rate from Octet sensorgram.",
  "data": [
    {"molecule": "B1", "values": [
      {"measurement": "Kd", "result": 7.98, "unit": "nM"}
    ]}
  ]
}
